Assay results published in US20210087522.

Experiments:
[1] = molecular target: T1, APNPCP, CP of an uncharacterized NRP/PK gene cluster from Anabaena
T1 chain: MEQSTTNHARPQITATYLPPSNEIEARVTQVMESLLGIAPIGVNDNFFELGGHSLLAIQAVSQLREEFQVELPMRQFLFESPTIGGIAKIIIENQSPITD

[2] = molecular target: T2, APACP, ACP of the glycolipid PKS in Anabaena
T2 chain: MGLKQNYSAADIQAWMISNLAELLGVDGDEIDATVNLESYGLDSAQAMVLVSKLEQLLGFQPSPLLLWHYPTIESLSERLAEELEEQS

[3] = molecular target: T3, AFACP, ACP of the FAS from Anabaena
T3 chain: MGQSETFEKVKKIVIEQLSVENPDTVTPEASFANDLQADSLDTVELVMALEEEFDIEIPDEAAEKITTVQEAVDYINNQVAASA

[4] = molecular target: T4, SFACP, ACP of the FAS from Synechocystis
T4 chain: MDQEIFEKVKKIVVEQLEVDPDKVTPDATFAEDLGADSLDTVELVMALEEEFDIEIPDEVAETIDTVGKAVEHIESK

[5] = molecular target: ScACP, ACP of a putative concanamycin gene cluster from Streptomyces coelicolor A(3)2
[6] = molecular target: T5, FNPCP, CP of an uncharacterized NRP gene cluster from Fischerella
T5 chain: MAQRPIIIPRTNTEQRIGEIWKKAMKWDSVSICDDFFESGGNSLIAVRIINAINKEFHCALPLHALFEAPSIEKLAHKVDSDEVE

[7] = molecular target: T6, FNsACP, homolog of ArCPNp from Fischerella
T6 chain: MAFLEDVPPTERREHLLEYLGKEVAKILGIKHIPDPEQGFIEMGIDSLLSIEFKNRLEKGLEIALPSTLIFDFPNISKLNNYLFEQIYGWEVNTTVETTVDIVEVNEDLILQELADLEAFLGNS

[8] = molecular target: AprACP, ACP of the apratoxin (PK/NRP) gene cluster in Lyngbya sp.
[9] = molecular target: T7, FisPCP, PCP of the shinorine gene cluster from Fischerella
T7 chain: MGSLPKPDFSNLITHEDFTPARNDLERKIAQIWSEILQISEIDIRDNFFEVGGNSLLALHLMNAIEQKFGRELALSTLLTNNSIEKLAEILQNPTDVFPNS

[10] = molecular target: T8, SsPCP, PCP of a thaxtomin cluster from Streptomyces scabiei 87.22
T8 chain: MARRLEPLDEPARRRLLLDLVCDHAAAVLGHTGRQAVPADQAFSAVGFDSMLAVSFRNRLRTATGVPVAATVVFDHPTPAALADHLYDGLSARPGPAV

[11] = molecular target: T9, MACP, CP of an uncharacterized NRP/PK gene cluster from M. aeruginosa NIES843
T9 chain: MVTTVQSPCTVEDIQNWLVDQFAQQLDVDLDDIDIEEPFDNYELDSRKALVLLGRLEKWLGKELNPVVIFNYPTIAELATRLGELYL

B1: AvPPT, Sfp-like phosphopantetheinyl transferase (PPTase) from Anabaena variabilis ATCC29413 (protein)
chain: MLQHTWLPKPPNLTLLSDEVHLWRIPLDRPESQLQHLAATLSSDELARANRFYFPEHRQRFTAGRGILRSILGLYLGVEPKQVKFEYESRGKPVLGDRFADSGLLFNLSHSQNLGLCAVNYTRQIGIDLEYLRPTSDLESLAKRFFLPREYELLRSLPDEQKQKIFFRYWTCKEAYLKATGDGIAKLEEIEIALTPTEPAKLQTTPAWSLLELVPDDNCVAAVAVAGFGWQPKFWQY
[1]
  phosphopantetheinylation of CP (apo to holo), LC-MS: APPT, AvPPT, MPPT and Sfp functionalized all substrates
[2]
  phosphopantetheinylation of CP (apo to holo), LC-MS: APPT, AvPPT, MPPT and Sfp functionalized all substrates
[3]
  phosphopantetheinylation of CP (apo to holo), LC-MS: APPT, AvPPT, MPPT and Sfp functionalized all substrates
[4]
  phosphopantetheinylation of CP (apo to holo), LC-MS: APPT, AvPPT, MPPT and Sfp functionalized all substrates
[5]
  phosphopantetheinylation of CP (apo to holo), LC-MS: APPT, AvPPT, MPPT and Sfp functionalized all substrates
[6]
  phosphopantetheinylation of CP (apo to holo), LC-MS: APPT, AvPPT, MPPT and Sfp functionalized all substrates
[7]
  phosphopantetheinylation of CP (apo to holo), LC-MS: APPT, AvPPT, MPPT and Sfp functionalized all substrates
[8]
  phosphopantetheinylation of CP (apo to holo), LC-MS: APPT, AvPPT, MPPT and Sfp functionalized all substrates
[9]
  phosphopantetheinylation of CP (apo to holo), LC-MS: APPT, AvPPT, MPPT and Sfp functionalized all substrates
[10]
  phosphopantetheinylation of CP (apo to holo), LC-MS: APPT, AvPPT, MPPT and Sfp functionalized all substrates
[11]
  phosphopantetheinylation of CP (apo to holo), LC-MS: APPT, AvPPT, MPPT and Sfp functionalized all substrates

B2: APPT, Sfp-like phosphopantetheinyl transferase (PPTase) from Anabaena sp. PCC7120 (protein)
chain: MLQHTWLPKPPNLTLLSDEVHLWRIPLDQPESQLQDLAATLSSDELARANRFYFPEHRRRFTAGRGILRSILGGYLGVEPGQVKFDYESRGKPILGDRFAESGLLFNLSHSQNLALCAVNYTRQIGIDLEYLRPTSDLESLAKRFFLPREYELLRSLPDEQKQKIFFRYWTCKEAYLKATGDGIAKLEEIEIALTPTEPAKLQTAPAWSLLELVPDDNCVAAVAVAGFGWQPKFWHY
[1]
  Km: 1.6 µM
  kcat: 0.0167 s⁻¹
  kcat/Km: 10000 M⁻¹ s⁻¹
  phosphopantetheinylation of CP (apo to holo), LC-MS: APPT, AvPPT, MPPT and Sfp functionalized all substrates
[2]
  Km: 10 µM
  kcat: 0.283 s⁻¹
  kcat/Km: 26700 M⁻¹ s⁻¹
  phosphopantetheinylation of CP (apo to holo), LC-MS: APPT, AvPPT, MPPT and Sfp functionalized all substrates
[3]
  Km: 6.8 µM
  kcat: 0.195 s⁻¹
  kcat/Km: 28300 M⁻¹ s⁻¹
  phosphopantetheinylation of CP (apo to holo), LC-MS: APPT, AvPPT, MPPT and Sfp functionalized all substrates
[4]
  Km: 2.8 µM
  kcat: 0.0267 s⁻¹
  kcat/Km: 10000 M⁻¹ s⁻¹
  phosphopantetheinylation of CP (apo to holo), LC-MS: APPT, AvPPT, MPPT and Sfp functionalized all substrates
[5]
  Km: 14.1 µM
  kcat: 0.09 s⁻¹
  kcat/Km: 6670 M⁻¹ s⁻¹
  phosphopantetheinylation of CP (apo to holo), LC-MS: APPT, AvPPT, MPPT and Sfp functionalized all substrates
[6]
  Km: 12.1 µM
  kcat: 0.203 s⁻¹
  kcat/Km: 16700 M⁻¹ s⁻¹
  phosphopantetheinylation of CP (apo to holo), LC-MS: APPT, AvPPT, MPPT and Sfp functionalized all substrates
[7]
  Km: 8.4 µM
  kcat: 0.0367 s⁻¹
  kcat/Km: 5000 M⁻¹ s⁻¹
  phosphopantetheinylation of CP (apo to holo), LC-MS: APPT, AvPPT, MPPT and Sfp functionalized all substrates
[8]
  Km: 7.8 µM
  kcat: 0.238 s⁻¹
  kcat/Km: 30000 M⁻¹ s⁻¹
  phosphopantetheinylation of CP (apo to holo), LC-MS: APPT, AvPPT, MPPT and Sfp functionalized all substrates
[9]
  Km: 7.1 µM
  kcat: 0.0383 s⁻¹
  kcat/Km: 5000 M⁻¹ s⁻¹
  phosphopantetheinylation of CP (apo to holo), LC-MS: APPT, AvPPT, MPPT and Sfp functionalized all substrates
[10]
  Km: 7.4 µM
  kcat: 0.127 s⁻¹
  kcat/Km: 16700 M⁻¹ s⁻¹
  phosphopantetheinylation of CP (apo to holo), LC-MS: APPT, AvPPT, MPPT and Sfp functionalized all substrates
[11]
  Km: 7.9 µM
  kcat: 0.0617 s⁻¹
  kcat/Km: 8330 M⁻¹ s⁻¹
  phosphopantetheinylation of CP (apo to holo), LC-MS: APPT, AvPPT, MPPT and Sfp functionalized all substrates
